From patent US20210230265A1 (Sanofi, published 2021)

Molecular target: T1, interleukin-33 (IL-33) (human, UniProt O95760 95-270, limits assumed)
T1 construct: This is endogenous circulating IL-33 in treated patients, not a recombinant construct; also called total IL-33
T1 sequence (looked up): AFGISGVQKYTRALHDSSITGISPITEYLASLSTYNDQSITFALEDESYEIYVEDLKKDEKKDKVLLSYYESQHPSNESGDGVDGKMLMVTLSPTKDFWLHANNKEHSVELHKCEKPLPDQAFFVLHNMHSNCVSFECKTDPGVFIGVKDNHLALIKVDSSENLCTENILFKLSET
Assay: Target mediated drug disposition (TMDD) model of total IL-33 vs. time in serum, driven by PopPK-predicted PK, all studies; an in vivo model estimate, not a direct binding assay; in vivo TMDD model estimate from clinical total IL-33 data, not a direct binding assay
Protocol: Total TL-33 vs. time was modelled using a target mediated drug disposition (TMDD) approach. All studies were included in the analysis. PopPK predicted PK for each individual was used to drive the total IL-33 dynamics. […] (This was based on the baseline IL-33 assumption of ½ lower limit of quantification (LLOQ).) Based on the computed threshold, 300 mg Q2W, 300 mg Q4W, and 300 mg Q8W may be able to meet the threshold target for achieving 90% target engagement.

Kd: 7.01 nM
B1: SAR440340 (antibody, human IgG4 S228P, kappa, V domains shown)
VH: VQLVESGGNLEQPGGSLRLSCTASGFTFSRSAMNWVRRAPGKGLEWVSGISGSGGRTYYADSVKGRFTISRDNSKNTLYLQMNSLSAEDTAAYYCAKDSYTTSWYGGMDVWGHGTTVTVSS
VL: IQMTQSPSSVSASVGDRVTITCRASQGIFSWLAWYQQKPGKAPKLLIYAASSLQSGVPSRFSGSGSGTDFTLTISSLQPEDFAIYYCQQANSVPITFGQGTRLEIKR
notes: Human anti-IL-33 antibody; also called REGN3500; itepekimab
